We go through three molecules from publication PMC5916898, “Global profiling of protein–DNA and protein–nucleosome binding affinities using quantitative mass spectrometry”.

Holding throughout (assay): pulldown; 150 mM NaCl, 50 mM Tris pH 8, 0.25% NP-40, 1 mM TCEP; 4 C, 2 h; 100 ug HeLa nuclear lysate
The target of one series is PAX6 (Homo sapiens, UniProt P26367). Particulars: protein: extract; label: 5' biotin (strand 1).
The next series addresses TEAD4 (Homo sapiens, UniProt Q15561). Particulars: protein: extract; label: 5' biotin (strand 1).
A further series addresses T1, NFATC3 (Homo sapiens, UniProt Q12968).
T1 sequence: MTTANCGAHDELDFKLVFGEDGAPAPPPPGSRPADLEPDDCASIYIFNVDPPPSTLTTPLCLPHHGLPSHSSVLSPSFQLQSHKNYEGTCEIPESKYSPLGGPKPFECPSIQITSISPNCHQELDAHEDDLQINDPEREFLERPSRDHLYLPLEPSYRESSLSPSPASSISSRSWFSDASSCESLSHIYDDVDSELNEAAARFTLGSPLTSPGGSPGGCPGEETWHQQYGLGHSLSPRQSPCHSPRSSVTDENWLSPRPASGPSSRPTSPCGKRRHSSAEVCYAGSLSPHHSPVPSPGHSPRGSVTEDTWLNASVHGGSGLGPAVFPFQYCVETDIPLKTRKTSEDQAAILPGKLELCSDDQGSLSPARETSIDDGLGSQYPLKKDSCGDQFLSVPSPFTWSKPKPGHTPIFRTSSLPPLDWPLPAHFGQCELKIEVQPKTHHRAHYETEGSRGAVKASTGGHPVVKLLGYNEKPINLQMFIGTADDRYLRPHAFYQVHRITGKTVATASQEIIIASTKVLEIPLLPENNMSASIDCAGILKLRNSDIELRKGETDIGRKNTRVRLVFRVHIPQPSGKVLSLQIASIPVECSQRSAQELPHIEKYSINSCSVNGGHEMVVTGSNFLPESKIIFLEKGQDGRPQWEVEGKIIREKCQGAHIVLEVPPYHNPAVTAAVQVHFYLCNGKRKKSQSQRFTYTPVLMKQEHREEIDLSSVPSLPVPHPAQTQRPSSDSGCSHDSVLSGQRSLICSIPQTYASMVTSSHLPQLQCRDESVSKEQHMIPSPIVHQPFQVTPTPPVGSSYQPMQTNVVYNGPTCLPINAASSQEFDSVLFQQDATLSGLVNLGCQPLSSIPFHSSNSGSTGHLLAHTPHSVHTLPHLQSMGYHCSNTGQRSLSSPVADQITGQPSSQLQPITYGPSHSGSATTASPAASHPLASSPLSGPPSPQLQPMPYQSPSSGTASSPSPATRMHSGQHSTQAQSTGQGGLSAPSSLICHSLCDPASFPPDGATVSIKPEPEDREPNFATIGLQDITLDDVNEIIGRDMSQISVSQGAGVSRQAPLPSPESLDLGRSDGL
Particulars: protein: extract; label: 5' biotin (strand 1).

The target in the next series is HOXC10 (Homo sapiens, UniProt Q9NYD6). Conditions: protein: extract; label: 5' biotin (strand 1).
The target in a further series is ZFHX3 (Homo sapiens, UniProt Q15911). Particulars: protein: extract; label: 5' biotin (strand 1).
A further series has as its target T2, ZNF512B (Homo sapiens, UniProt Q96KM6).
T2 sequence: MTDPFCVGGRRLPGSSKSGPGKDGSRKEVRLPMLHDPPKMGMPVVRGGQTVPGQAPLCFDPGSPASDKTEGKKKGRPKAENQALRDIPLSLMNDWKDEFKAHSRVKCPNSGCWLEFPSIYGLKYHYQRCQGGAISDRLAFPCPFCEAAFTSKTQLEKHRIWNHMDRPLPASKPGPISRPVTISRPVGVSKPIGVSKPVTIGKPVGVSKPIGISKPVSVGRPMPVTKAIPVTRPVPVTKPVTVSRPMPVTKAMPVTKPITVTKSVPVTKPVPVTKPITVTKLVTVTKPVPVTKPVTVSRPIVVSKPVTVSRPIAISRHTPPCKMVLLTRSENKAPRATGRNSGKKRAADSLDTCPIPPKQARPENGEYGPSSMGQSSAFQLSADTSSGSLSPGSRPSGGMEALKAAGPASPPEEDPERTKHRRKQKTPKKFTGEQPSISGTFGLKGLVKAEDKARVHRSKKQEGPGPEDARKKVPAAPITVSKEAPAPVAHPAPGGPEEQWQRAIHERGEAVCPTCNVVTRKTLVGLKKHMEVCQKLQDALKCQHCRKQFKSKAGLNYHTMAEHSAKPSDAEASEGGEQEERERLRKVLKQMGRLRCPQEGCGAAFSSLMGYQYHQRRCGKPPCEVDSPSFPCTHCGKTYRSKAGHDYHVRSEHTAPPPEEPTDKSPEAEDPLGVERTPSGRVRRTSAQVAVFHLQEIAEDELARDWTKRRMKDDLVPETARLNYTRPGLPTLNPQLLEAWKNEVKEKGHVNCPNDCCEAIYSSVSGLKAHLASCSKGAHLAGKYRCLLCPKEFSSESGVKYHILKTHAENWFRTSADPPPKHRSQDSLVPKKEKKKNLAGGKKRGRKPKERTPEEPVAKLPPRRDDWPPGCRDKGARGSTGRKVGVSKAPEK
Conditions: protein: extract; label: 5' biotin (strand 1).

The next series has as its target HIVEP1 (Homo sapiens, UniProt P15822).
A further series addresses ZNF787 (Homo sapiens, UniProt Q6DD87). Conditions: protein: extract; label: 5' biotin (strand 1).
The target in a further series is YY1 (Homo sapiens, UniProt P25490). Particulars: protein: extract; label: 5' biotin (strand 1).
Chain of YY1 (P25490 whole entry): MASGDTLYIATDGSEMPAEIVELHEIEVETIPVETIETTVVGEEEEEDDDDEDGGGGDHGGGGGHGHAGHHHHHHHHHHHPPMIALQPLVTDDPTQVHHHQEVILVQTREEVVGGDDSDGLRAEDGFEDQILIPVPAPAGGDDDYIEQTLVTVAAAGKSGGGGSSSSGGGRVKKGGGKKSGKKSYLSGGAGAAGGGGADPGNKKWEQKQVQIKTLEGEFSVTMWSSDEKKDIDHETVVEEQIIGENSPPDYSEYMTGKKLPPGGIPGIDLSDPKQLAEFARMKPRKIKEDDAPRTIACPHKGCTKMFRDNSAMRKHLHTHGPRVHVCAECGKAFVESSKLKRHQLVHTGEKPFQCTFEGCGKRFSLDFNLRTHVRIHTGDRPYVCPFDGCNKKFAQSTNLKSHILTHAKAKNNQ

Chain of HOXC10 (Q9NYD6 whole entry): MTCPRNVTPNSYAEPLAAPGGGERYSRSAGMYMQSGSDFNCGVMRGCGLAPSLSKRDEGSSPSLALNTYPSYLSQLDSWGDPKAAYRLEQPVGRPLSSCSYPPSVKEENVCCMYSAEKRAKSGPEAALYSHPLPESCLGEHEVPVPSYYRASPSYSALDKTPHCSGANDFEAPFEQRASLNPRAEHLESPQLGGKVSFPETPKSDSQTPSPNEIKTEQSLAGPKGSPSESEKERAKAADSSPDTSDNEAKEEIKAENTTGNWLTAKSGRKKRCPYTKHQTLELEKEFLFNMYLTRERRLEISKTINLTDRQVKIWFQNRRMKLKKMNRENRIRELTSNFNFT
Chain of PAX6 (P26367 whole entry): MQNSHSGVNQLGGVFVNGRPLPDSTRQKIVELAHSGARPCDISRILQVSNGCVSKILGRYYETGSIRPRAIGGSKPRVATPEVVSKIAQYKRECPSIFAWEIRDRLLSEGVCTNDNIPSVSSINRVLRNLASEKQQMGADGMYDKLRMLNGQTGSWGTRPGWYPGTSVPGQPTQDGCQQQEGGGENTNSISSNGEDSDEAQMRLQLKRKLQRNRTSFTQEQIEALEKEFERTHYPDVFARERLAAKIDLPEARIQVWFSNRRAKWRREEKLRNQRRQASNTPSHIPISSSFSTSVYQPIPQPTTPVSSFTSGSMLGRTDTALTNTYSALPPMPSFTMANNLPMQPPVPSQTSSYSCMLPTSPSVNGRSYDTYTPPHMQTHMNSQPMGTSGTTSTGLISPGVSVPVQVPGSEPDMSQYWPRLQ
Chain of ZNF787 (Q6DD87 whole entry): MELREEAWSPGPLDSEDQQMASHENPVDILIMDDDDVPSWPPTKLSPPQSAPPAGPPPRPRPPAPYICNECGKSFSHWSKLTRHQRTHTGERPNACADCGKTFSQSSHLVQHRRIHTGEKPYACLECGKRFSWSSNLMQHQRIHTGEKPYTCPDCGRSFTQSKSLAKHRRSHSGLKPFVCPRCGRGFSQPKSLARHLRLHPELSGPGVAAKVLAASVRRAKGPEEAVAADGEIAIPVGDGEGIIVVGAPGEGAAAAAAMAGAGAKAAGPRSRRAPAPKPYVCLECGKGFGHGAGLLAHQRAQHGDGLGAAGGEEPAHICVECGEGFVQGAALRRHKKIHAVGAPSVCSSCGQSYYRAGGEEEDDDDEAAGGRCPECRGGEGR
Chain of TEAD4 (Q15561 whole entry): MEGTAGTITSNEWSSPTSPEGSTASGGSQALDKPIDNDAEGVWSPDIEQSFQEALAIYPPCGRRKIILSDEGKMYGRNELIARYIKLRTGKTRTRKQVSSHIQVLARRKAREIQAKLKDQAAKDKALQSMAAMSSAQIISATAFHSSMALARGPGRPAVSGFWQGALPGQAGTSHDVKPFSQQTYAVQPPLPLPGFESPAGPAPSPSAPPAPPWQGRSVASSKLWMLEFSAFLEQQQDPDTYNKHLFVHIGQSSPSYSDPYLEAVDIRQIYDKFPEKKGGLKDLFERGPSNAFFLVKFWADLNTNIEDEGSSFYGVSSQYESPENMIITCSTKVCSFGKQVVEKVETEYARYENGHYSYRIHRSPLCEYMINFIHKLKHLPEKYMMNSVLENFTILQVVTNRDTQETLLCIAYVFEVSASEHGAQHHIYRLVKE

B1: TEAD (dsDNA)
DNA 1: TCGGGACCCAGGCCTGGAATGTTTCCACC
DNA 2: GGTGGAAACATTCCAGGCCTGGGTCCCGA
As for B1, the “apparent K (half saturation)” value with PAX6 stood at 191 nM; with TEAD4, 15.3 nM; with NFATC3, 46.7 nM.

B2: TATA-box (dsDNA)
DNA 1: GCGGCGCTCTATATAAGTGGGCAGTG
DNA 2: CACTGCCCACTTATATAGAGCGCCGC
Turning to B2, the “apparent K (half saturation)” value worked out at 87.8 nM in the series with HOXC10 and 289 nM with ZFHX3.

B3: CTCF (dsDNA)
DNA 1: TCAGAGTGGCGGCCAGCAGGGGGCGCCCTTGCCAGA
DNA 2: TCTGGCAAGGGCGCCCCCTGCTGGCCGCCACTCTGA
For the molecule B3, the “apparent K (half saturation)” value worked out at 353 nM in the series with ZNF512B, 76.6 nM with HIVEP1, 370 nM with ZNF787 and 400 nM with YY1.
